What was measured:
[1] = biological target: cynomolgus PD-L1, his tagged (cPD-L1-his) (cynomolgus (Macaca fascicularis)) (UniProt G7PSE7); assay: ELISA on coated cPD-L1-his, negative control
[2] = biological target: human PD-L1, his tagged (hPD-L1-his) (human) (UniProt Q9NZQ7); assay: ELISA on coated hPD-L1-his, negative control
[3] = biological target: human PD-L1 Fc fusion (hPD-L1-Fc) (human) (UniProt Q9NZQ7); assay: blocking ELISA: residual biotin-hPD-1-Fc signal on coated hPD-L1-Fc, negative control
Sequence of human PD-L1 Fc fusion (hPD-L1-Fc) (human) (Q9NZQ7 19-238 limits assumed): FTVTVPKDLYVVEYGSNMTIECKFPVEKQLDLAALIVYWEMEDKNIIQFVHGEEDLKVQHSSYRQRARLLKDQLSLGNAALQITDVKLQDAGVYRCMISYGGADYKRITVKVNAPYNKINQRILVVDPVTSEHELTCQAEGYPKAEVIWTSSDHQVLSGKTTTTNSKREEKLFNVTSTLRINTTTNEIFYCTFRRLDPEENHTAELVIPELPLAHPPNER

Sequence of human PD-L1, his tagged (hPD-L1-his) (human) (Q9NZQ7 19-238 limits assumed): as above
Sequence of cynomolgus PD-L1, his tagged (cPD-L1-his) (cynomolgus (Macaca fascicularis)) (G7PSE7 entry or part of it limits assumed, form in doubt): as the sequence (Q9NZQ7 19-238 limits assumed) above, with A33T, A34S, S62N, R68Q, Q82R, F173L, T185A, T192I, H215L counted along it

Substance: NEG (negative control of the hybridoma supernatant screen)
- A450 [1]: 0.0348 A450
- A450 [2]: 0.034 A450
- Block Residual % [3]: 60%

Reference: US20240067729A1
